In patent US20190233522A1, “NEW DOSAGE REGIMENS FOR ANTIBODY DRUG CONJUGATES BASED ON ANTI-AXL ANTIBODIES” (GENMAB A/S, priority 2016, published 2019):
Positions count from the first letter of the chain named.

B1: IgG1-AXL-148 (antibody, V domains shown)
VH: EVQLLESGGGLVQPGGSLRLSCAASGFTFSSYAMTWVRQAPGKGLEWVSAISISGGSTFYADSVKGRFTISRDNSKNTLYLQMNSLRAEDTAVYYCRGYSGYVYDAFDFWGQGTMVTVSS
VL: DIQMTQSPSSLSASVGDRVTITCRASQGISNWLAWYQQKPEKAPKSLIYAASSLQSGVPSRFSGSGSGTDFTLTISSLQPEDFATYYCQQYNSYPLTFGGGTKVEIK
B2: IgG1-AXL-733-vcMMAE: anti-AXL antibody 733 (VH SEQ ID No 34, VL SEQ ID No 35) conjugated to vcMMAE (conjugate)
VH: QVQLVESGGGVVQPGRSLRLSCAASGFSFSTYAMHWVRQAPGKGLEWVAVISYDGDNKYSADSVKGRFTISRDNSKNTLYLQMNSLRAEDTAVYYCARGRKLGIDAFDIWGQGTMVTVSS
VL: AIQLTQSPSSLSASVGDRVTITCRASQGISSALAWYQQKPGKAPKLLIYDASSLESGVPSRFSGSGSGTDFTLTISGLQPEDFATYYCQQFNSYPFTFGPGTKVDIK
modifications: vc-MMAE conjugate; homo sapiens
B3: IgG1-AXL-183-vcMMAE: anti-AXL antibody 183 (FN1-binder) conjugated to vcMMAE (conjugate)
VH: QVQLQQWGAGLLKPSETLSLTCAVYGGSFSGYYWSWIRQPPGKGLEWIGEINQSGSTNYNPSLKSRVTISVDTSKNQFSLKLSSVTAADTSVYYCASGNWDHFFDYWGQGTLVTVSS
VL: DIQMTQSPSSVSASVGDRVTITCRASQGISSWLAWYQHKPGKAPKLLIYATSSLQSGVTSRFSGSGSGTDFTLTISSLQPEDFATYYCQQAKSFPWTFGQGTKVEIK
B4: IgG1-AXL-726-vcMMAE: anti-AXL antibody 726 (FN2-binder) conjugated to vcMMAE (conjugate)
VH: QVQLQQWGAGLLKPSETLSLTCAIDGGSFSGYYWSWIRQPPGKGLEWIGEISHSGRTNYNPSLKSRVTISIDTSKNQFSLKLSSVAAADTAVYYCARFITMIRGAIITHFDYWGQGALVTVSS
VL: B1 VL with N31S, N92H, L96Y, G100Q, V104L

Columns and labels:
PAXF1657 tumors = experiment: PAXF1657 pancreas cancer PDX model; format: in vivo, NMRI nu/nu mice
Description: Human pancreas tumor tissue was subcutaneously implanted in the left flank of 5-7 weeks old female NMRI nu/nu mice. […] At day of randomization (day 0), the 3 ADCs were dosed intravenously (i.v.) at either 4 mg/kg or 2 mg/kg, and the control group received a single dose of IgG1-b12 (4 mg/kg). Tumor volumes (mm^3) were monitored twice weekly and were calculated from caliper (PLEXX) measurements as: 0.52×(length)×(width)^2.

[1] = Pre-clinical PK studies in cynomolgus monkey; format: in vivo
Description: Data from 5 in-vivo pre-clinical studies, shown in the Table below, were provided, containing measurements of the plasma ADC level, plasma IgG level, and plasma MMAE level (only measured in study 5).
All studies appeared to show a significant drop in plasma concentrations of ADC/IgG after the 2nd dose when compared to the first dose, which corresponded with an ADA response. As this is a fully human antibody, ADA response are only very rarely expected to occur in humans. Therefore, only data after the first dose were included in the data preparation and subsequently modelled.

[2] = test system: LCLC-103H xenograft tumors; experiment: Therapeutic treatment of SC LCLC-103H tumor xenografts (Example 3); format: in vivo, SCID mice
Description: The in vivo efficacy of MMAE-conjugated anti-AXL antibodies was determined in established subcutaneous (SC) LCLC-103H xenograft tumors in SCID mice. 5×10^6 LCLC-103H (large cell lung carcinoma) tumor cells (obtained from Leibniz-Institut DSMZ-Deutsche Sammlung von Mikroorganismen and Zellkulturen GmbH (DSMZ)) in 200 μL PBS were injected subcutaneously in the right flank of female SCID mice. Starting 14-21 days after tumor cell inoculation, when the average tumor size was >100-200 mm^3 and distinct tumor growth was observed, a single injection with 1 mg/kg (20 μg/mouse) IgG1-AXL-vcMMAE antibodies or control (unconjugated IgG1-b12) was given intraperitoneally (100 μL/mouse). Tumor volume was determined at least two times per week. Tumor volumes (mm^3) were calculated from caliper (PLEXX) measurements as: 0.52×(length)×(width)^2.

A431 tumors = experiment: A431 xenograft model (high Gas6); format: in vivo; details: 3 mg/kg i.p., SCID mice
Description: (§1) Tumor induction was performed by subcutaneous injection of 5×10^6 A431 or LCLC-103H tumor cells (both obtained from Leibniz-Institut—Deutsche Sammlung von Mikroorganismen and Zellkulturen GmbH (DSMZ)) in 200 μL PBS in the right flank of female SCID mice. Treatment was started 14-21 days after tumor cell inoculation, when the average tumor size was >100-200 mm^3 and distinct tumor growth was observed. Mice received a single injection or a total of 4 biweekly intraperitoneal injections with IgG1-AXL-vcMMAE ADCs or control antibody (unconjugated IgG1-b12), as indicated. Tumor volume was determined at least two times per week. Tumor volumes (mm^3) were calculated from caliper (PLEXX) measurements as: 0.52×(length)×(width)^2.

LCLC-103H tumors = experiment: LCLC-103H xenograft model (low Gas6, Example 5); format: in vivo; details: 3 mg/kg i.p., SCID mice
Description: as §1

CEXF 773 tumors = experiment: Cervix carcinoma PDX model CEXF 773; format: in vivo, NMRI nu/nu mice; details: for anti-tumor activity on CEXF 773 tumors: 4 mg/kg i.v. day 0 and day 7; for average tumor size versus IgG1-b12 and IgG1-b12-vcMMAE: day 28, 4 mg/kg i.v. day 0 and 7, p<0.001
Description: The anti-tumor activity of IgG1-AXL-183-vcMMAE and IgG1-AXL-726-vcMMAE was evaluated in the patient derived cervix carcinoma xenograft CEXF 773 model in NMRI nu/nu mice (Harlan, Netherlands). Experiments were performed by Oncotest (Freiburg, Germany).
Tumor fragments were obtained from xenografts in serial passage in nude mice. After removal from donor mice, tumors were cut into fragments (4-5 mm diameter) and placed in PBS (with 10% penicillin/streptomycin) until subcutaneous implantation. Mice under isofluorane anesthesia received unilateral, subcutaneous tumor implants in the flank. Tumors were allowed to grow until the tumor volume was 50-250 mm^3.
The treatment groups were: IgG1-b12, IgG1-b12-vcMMAE, IgG1-AXL-183-vcMMAE and IgG1-AXL-726-vcMMAE. The antibodies and ADCs were dosed intravenously (i.v.) at 4 mg/kg on the day of randomization (day 0) and on day 7. Tumor volumes (mm^3) were monitored twice weekly and were calculated from caliper (PLEXX) measurements as: 0.52×(length)×(width)^2.

MDA-MB-231 tumors = experiment: Orthotopic MDA-MB-231 D3H2LN breast cancer xenograft model; format: in vivo, SCID mice; details: for anti-tumor activity on MDA-MB-231 tumors: 4 biweekly doses of 3 mg/kg; for average tumor size versus IgG1-b12 and IgG1-b12-vcMMAE: day 32, 4 biweekly doses of 3 mg/kg, P<0.001 One Way Anova
Description: The anti-tumor activity of IgG1-AXL-183-vcMMAE and IgG1-AXL-726-vcMMAE was evaluated in an orthotopic MDA-MB-231 D3H2LN xenograft model.
MDA-MB-231-luc D3H2LN Bioware cells (mammary gland adenocarcinoma; Perkin Elmer, Waltham, Mass.) were implanted in the mammary fat pad of 6-11 week old, female SCID (C.B-17/IcrPrkdc-scid/CRL) mice (Charles-River) under isofluorane anesthesia. Tumors were allowed to grow and mice were randomized when tumors reached a volume of ˜325 mm^3. […] The treatment groups were: IgG1-b12, IgG1-b12-vcMMAE, IgG1-AXL-183-vcMMAE and IgG1-AXL-726-vcMMAE. The animals received a total of 4 biweekly doses of 3 mg/kg antibody or ADC starting at the day of randomization. Tumor volumes (mm^3) were monitored twice weekly and were calculated from caliper (PLEXX) measurements as: 0.52×(length)×(width)^2.

| Molecule | anti-tumor activity in the PAXF1657 model (PAXF1657 tumors; dose not given) | pharmacokinetic properties, unconjugated antibody (study 3) versus ADC (study 2) [1] | complete tumor reduction ([2]; 1 mg/kg single i.p.) | tumor volume versus control IgG1-b12 ([2]; day 30, One Way ANOVA (Dunnett's), 1 mg/kg single i.p.) | anti-tumor activity in established SC LCLC-103H tumors ([2]; single i.p. injection 1 mg/kg, SCID mice) | growth of PAXF1657 tumors compared to the control group (PAXF1657 tumors; 2 mg/kg i.v., day 0) | anti-tumor activity on PAXF1657 tumors (PAXF1657 tumors; 4 mg/kg i.v., day 0) | average tumor size versus isotype control IgG1-b12 (PAXF1657 tumors; day 14, 2 mg/kg or 4 mg/kg, p<0.001 Tukey's multiple comparison test) | anti-tumor activity on A431 tumors (A431 tumors) | anti-tumor activity in the LCLC-103H xenograft model (LCLC-103H tumors) | anti-tumor activity on CEXF 773 tumors (CEXF 773 tumors) | average tumor size versus IgG1-b12 and IgG1-b12-vcMMAE (CEXF 773 tumors) | anti-tumor activity on MDA-MB-231 tumors (MDA-MB-231 tumors) | average tumor size versus IgG1-b12 and IgG1-b12-vcMMAE (MDA-MB-231 tumors) |
| --- | --- | --- | --- | --- | --- | --- | --- | --- | --- | --- | --- | --- | --- | --- |
| B1 | did not result in anti-tumor activity | similar | – | – | – | – | – | – | – | – | – | – | – | – |
| B2 | – | – | in some mice within these groups to complete tumor reduction | highly significant difference | induced tumor regression | significantly reduced the growth | induced tumor regression | significantly smaller | induced growth inhibition | – | – | – | – | – |
| B3 | – | – | – | – | – | – | – | – | induced growth inhibition | induced tumor regression | induced tumor regression | significantly smaller | induced tumor regression | significantly smaller |
| B4 | – | – | – | – | – | – | – | – | induced growth inhibition | induced tumor regression | induced tumor regression | significantly smaller | induced tumor regression | significantly smaller |
